Test results as given in article PMC4676693.

What was measured:
Assay in all cases: SPR; Biacore T200; anti-His antibody amine-coupled on a CM5 chip captures the His-tagged receptor (100 nM FcγRIa, 300 nM FcγRIIa_R131 and FcγRIIb, 200 nM FcγRIIIa_V158, 200 nM FcRn); IgG1 glycovariant, Fc-fragment or pre-incubated IgG1 complex injected as analyte (FcγRI 100 nM, FcγRIIa/b 300 nM, FcγRIIIa 200 nM); non-kinetic comparison, WT set as 100%; HBS-N (10 mM HEPES, pH 7.4, 150 mM NaCl)
[1] = biological target: His-tagged FcγRIIIa_V158 (human)
[2] = biological target: His-tagged FcγRIIb (human) (UniProt P31994)
[3] = biological target: His-tagged FcγRIIa_R131 (human)
His-tagged FcγRI (human) = His-tagged FcγRI (human) (UniProt P12314)
Sequence of UniProt P12314 (P12314 16-374): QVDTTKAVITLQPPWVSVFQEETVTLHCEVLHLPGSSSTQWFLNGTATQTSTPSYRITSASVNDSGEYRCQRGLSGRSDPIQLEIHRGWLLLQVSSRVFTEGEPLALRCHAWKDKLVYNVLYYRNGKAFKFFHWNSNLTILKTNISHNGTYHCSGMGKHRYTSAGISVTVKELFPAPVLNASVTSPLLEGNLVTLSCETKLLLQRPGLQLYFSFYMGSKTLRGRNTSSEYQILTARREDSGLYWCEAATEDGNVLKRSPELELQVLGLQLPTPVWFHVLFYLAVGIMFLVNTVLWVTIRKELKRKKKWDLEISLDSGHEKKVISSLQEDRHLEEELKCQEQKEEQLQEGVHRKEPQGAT

Sequence of UniProt P31994 (P31994 43-310): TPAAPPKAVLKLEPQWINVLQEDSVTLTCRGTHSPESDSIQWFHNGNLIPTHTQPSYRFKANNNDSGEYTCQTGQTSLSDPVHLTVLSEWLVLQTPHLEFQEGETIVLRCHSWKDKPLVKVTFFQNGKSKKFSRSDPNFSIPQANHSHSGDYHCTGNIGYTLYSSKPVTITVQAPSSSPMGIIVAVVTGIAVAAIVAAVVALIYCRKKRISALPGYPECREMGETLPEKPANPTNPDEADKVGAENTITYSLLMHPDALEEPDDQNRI

| Substance | percent binding (WT = 100%) [1] [%] | percent binding (WT = 100%) [2] [%] | percent binding (WT = 100%) [3] [%] | percent decrease in binding against WT (His-tagged FcγRI (human)) [%] |
| --- | --- | --- | --- | --- |
| G0 IgG1 glycovariant (antibody) | 75 |  |  |  |
| G1 IgG1 glycovariant (antibody) | 75 |  |  |  |
| G1+1SA IgG1 glycovariant (antibody) | 75 |  |  |  |
| M3 IgG1 glycovariant (antibody) | 70 | 65 | 45 |  |
| deglycosylated IgG1 glycovariant (antibody) |  |  |  | 40 |
